We go through one sequence from paper PMC4373775.

Changes are numbered by the printed parent chain.

For series [1], the target named is T1, ParB_Ala S5A;T32A;T41A;T53A;T110A;T195A;S239A;T254A;T300A;T303A (Mycobacterium tuberculosis H37Rv) (UniProt P9WIJ9).
T1 sequence: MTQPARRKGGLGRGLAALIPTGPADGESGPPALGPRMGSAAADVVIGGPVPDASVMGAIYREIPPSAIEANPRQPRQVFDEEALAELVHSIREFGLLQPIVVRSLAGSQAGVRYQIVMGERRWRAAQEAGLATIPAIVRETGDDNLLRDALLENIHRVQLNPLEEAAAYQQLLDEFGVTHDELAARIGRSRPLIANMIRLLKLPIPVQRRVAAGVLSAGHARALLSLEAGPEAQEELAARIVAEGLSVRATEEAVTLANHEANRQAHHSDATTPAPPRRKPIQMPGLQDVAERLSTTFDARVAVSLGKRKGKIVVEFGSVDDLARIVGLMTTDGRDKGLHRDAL
Put plainly: EMSA. (In EMSA bound probe runs differently from free probe, usually more slowly.)

The target of series [2] is T2, ParB_Asp S5D;T32D;T41D;T53D;T110D;T195D;S239D;T254D;T300D;T303D (Mycobacterium tuberculosis H37Rv) (UniProt P9WIJ9).
T2 sequence: T1 sequence with A5D, A32D, A41D, A53D, A110D, A195D, A239D, A254D, A300D, A303D
Nature of the series: EMSA.

On to “GCGAGTGGAGGGACGGCGTGAGTGCTCCGTGGGGCCCGGTGGCCGCTGGACCGTCCGCGCTCGTAAGGTCGGGCCAGGCTTCAACTATCGAACCATTCCAGCGGGAAATGACACCACCGACACCGACGCCTGAGGCCGCGCACAATCCGACGATGAATGTTTCACGTGAAACATCGACAGAATTCGACACCCCCATCGGCGCTGCAGCAGAACGTGCGATGCG (double strand) [parS probe]”, for which the binding result in series [1] is reported as “binds”; in series [2], “binds more weakly”.
